Laboratory results published in US20090197263, “Compare-MS: Method Rapid, Sensitive and Accurate Detection of DNA Methylation” (published 2009).

Key:
[1] = molecular target: T1, MBD2-MBD (methyl-binding domain of MBD2) (Homo sapiens, UniProt Q9UBB5 Q9UBB5:145-213); experiment: FP; 10 nM hairpin; 50 mM NaCl, 1 mM MgCl2, 10 mM Tris pH 7.4, room temp; text gives 2 or 3 sites as 156 and 222 nM respectively but cites FIGS. 2A (three pairs) and; conditions: tags: C-terminal 6xHis (pFBC6H baculovirus vector, Sf9), label: 5'-6FAM
T1 sequence (Q9UBB5 145-213, one chain of several): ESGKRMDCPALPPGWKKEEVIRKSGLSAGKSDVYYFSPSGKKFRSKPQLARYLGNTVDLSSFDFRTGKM
Experimental: (§1) 10 nM of annealed, fluorescently-labeled hairpin oligonucleotides with the sequence 5′-6FAM-[…]-3′ (SEQ ID NO:4) with no methylated CpGs (unmethylated hairpin), 2 methylated CpGs at the 2nd and 5th CpGs from the 5′ end (1 symmetrically methylated CpG hairpin), 3 methylated CpGs toward the 3′ end (3 asymmetrically methylated CpG hairpin), 4 methylated CpGs at the 1st, 2nd, 5th, and 6th CpGs from the 5′ end (2 symmetrically methylated CpG hairpin), or 6 methylated CpGs (3 symmetrically methylated CpG hairpin) were incubated with various concentrations of recombinant MBD2-MBD in a 50 μL reaction volume containing 4% glycerol, 1 mM MgCl₂, 0.5 mM EDTA, 0.5 mM DTT, 50 mM NaCl, 10 mM Tris-HCl (pH 7.4), 0.2% Tween-20 for 1 hour at room temperature with gentle shaking. Fluorescence polarization measurements were taken in triplicate using a Beckman Coulter DTX 880 Multimode Detector as described previously (Lee et al., (2005), supra). Briefly, fluorescence anisotropies (r) were calculated as
(§2) 6His-tagged methyl-binding domain of human MBD2 (MBD2-MBD) was expressed in Sf9 insect cells using a baculoviral expression system and purified using Ni-NTA Superflow beads (Qiagen, Valencia, Calif.). The affinities of MBD2-MBD for fluorescently labeled hairpin oligonucleotides containing various configurations of CpG methylation were then determined by fluorescence polarization (FIG. 2). […]

[2] = molecular target: T1, MBD2-MBD (methyl-binding domain of MBD2); experiment: FP; 10 nM hairpin; 50 mM NaCl, 1 mM MgCl2, 10 mM Tris pH 7.4, room temp; conditions: tags: C-terminal 6xHis (pFBC6H baculovirus vector, Sf9), label: 5'-6FAM
Experimental: as §1, §2

## ATCGTCGTACGTTTTCGTACGACGAT (structured_DNA, 5mC at 1st, 2nd, 5th and 6th CpGs from 5' end (C3, C6, C20, C23)) [2 symmetrically methylated CpG hairpin]
[1]
  EC50: 156 nM

## ATCGTCGTACGTTTTCGTACGACGAT (structured_DNA, 5mC at 2nd and 5th CpGs from 5' end (C6, C20)) [1 symmetrically methylated CpG hairpin]
[2]
  EC50: 519 nM
